According to paper doi:10.1101/447979:

Molecular target: FLAG-tagged human importin-α7 (human) (UniProt O60684)
Test: co-IP

In the case of “nucleoprotein (NP) of 2009 pandemic H1N1 influenza A virus A/Hamburg/NY1580/09, parental (natural protein)”, the fold binding against importin-α1 is reported as 10 fold.
